Data published in patent publication US20170073386A1.

Key:
[1] = target: murine GITR expressed on cells (mouse) (UniProt O35714); experiment: cell-based or functional assay
[2] = target: murine GITR expressed on cells (mouse) (UniProt O35714); experiment: flow cytometry after treatment of mice with mGITRL-FP IgG2a; competitor DTA-1 as stain

Chain of murine GITR expressed on cells (mouse) (O35714 20-228): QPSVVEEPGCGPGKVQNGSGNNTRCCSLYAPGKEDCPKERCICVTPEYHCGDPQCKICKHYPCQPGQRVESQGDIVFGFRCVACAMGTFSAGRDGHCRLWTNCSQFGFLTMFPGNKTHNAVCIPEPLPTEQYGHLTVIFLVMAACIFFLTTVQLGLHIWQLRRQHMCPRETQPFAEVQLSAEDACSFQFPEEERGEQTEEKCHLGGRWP

Substance	EC50, GITR-dependent NFκB reporter gene cell assay (Jurkat mGITR) [1]	fold potency against DTA-1, GITR-dependent NFκB reporter gene cell assay [1]	reduction in GITR MFI (DTA-1 staining) on Tregs [2]
DTA-1 anti-GITR antibody	2.31 nM	–	–
mGITRL-FP mIgG2a (Fc fusion)	0.05 nM	50 fold	> 75%
